These results are taken from paper PMC4506780.

Residue numbers refer to the chain shown, from its start. Names and notes keep the numbering of the source.

Substrate in the data set: c1ccc2c3c([nH]c2c1)CNCC3
In words: steady-state kinetics of chlorination. It is filed as biochemical, Lentzea aerocolonigenes. The following applies: cofactor regeneration as in Scheme 2.

B1: RebH (Lentzea aerocolonigenes; K145M/M71V/S2P) (protein)
chain: MPGKIDKILIVGGGTAGWMAASYLGKALQGTADITLLQAPDIPTLGVGEATIPNLQTAFFDFLGIPEDEWVRECNASYKVAIKFINWRTAGEGTSEARELDGGPDHFYHSFGLLKYHEQIPLSHYWFDRSYRGKTVEPFDYACYMEPVILDANRSPRRLDGSKVTNYAWHFDAHLVADFLRRFATEKLGVRHVEDRVEHVQRDANGNIESVRTATGRVFDADLFVDCSGFRGLLINKAMEEPFLDMSDHLLNDSAVATQVPHDDDANGVEPFTSAIAMKSGWTWKIPMLGRFGTGYVYSSRFATEDEAVREFCEMWHLDPETQPLNRIRFRVGRNRRAWVGNCVSIGTSSCFVEPLESTGIYFVYAALYQLVKHFPDKSLNPVLTARFNREIETMFDDTRDFIQAHFYFSPRTDTPFWRANKELRLADGMQEKIDMYRAGMAINAPASDDAQLYYGNFEEEFRNFWNNSNYYCVLAGLGLVPDAPSPRLAHMPQATESVDEVFGAVKDRQRNLLETLPSLHEFLRQQHGR
Broadly, the Km is the substrate concentration at which the rate is half of its maximum. As a reminder, the kcat is the number of substrate molecules converted per active site and unit of time at saturation. The term kcat/Km denotes the turnover number divided by the Michaelis constant. As to B1, where the note is “variant 1-PVM, 5 mol% enzyme”, the Km turned out to be 215 µM, the kcat amounted to 0.000667 s⁻¹ and the kcat/Km came to 3.1 M⁻¹ s⁻¹.

B2: RebH (Lentzea aerocolonigenes; K145M/M71V/N467T/S2P) (protein)
chain: B1 chain with N467T
Consider B2, for which, for the setting “variant 2-T, 3 mol% enzyme”, the Km was determined as 236 µM, the kcat worked out at 0.000933 s⁻¹ and the kcat/Km was 3.95 M⁻¹ s⁻¹.
